Consider one protein from article PMC6390363, “Tau as a mediator of neurotoxicity associated to cerebral amyloid angiopathy” (Acta Neuropathologica Communications, 2019).

This data set concerns the molecule itself. The experiment in a line: SDS-PAGE and Western blot of the stirred peptide; ADan peptide 0.5 mg/mL in PBS without calcium and magnesium, stirred at room temperature for up to 48 h, aliquots at 2, 8, 24 and 48 h; blots with anti-ADan 1699 and the conformational anti-oligomer antibody F11G3.

B1: ADan peptide (Danish amyloid) (peptide)
peptide: EASNCFAIRHFENKFAVETLICFNLFLNSQEKHY
notes: the C-terminal part differs from wild-type BRI2; also called ADan amyloid peptide; ADan recombinant peptide; source: synthetic peptide (ThermoFisher Scientific, Fmoc-based solid phase peptide synthesis, purified by HPLC)
B1: the binding result was “binds”.
